{"source": "paper PMC11074019", "key": {"[1]": {"molecular_target": "Transient receptor potential channel ankyrin 1 (TRPA1) (human (endogenous in MDA-MB-231)) (UniProt O75762)", "sequence (O75762 whole entry)": "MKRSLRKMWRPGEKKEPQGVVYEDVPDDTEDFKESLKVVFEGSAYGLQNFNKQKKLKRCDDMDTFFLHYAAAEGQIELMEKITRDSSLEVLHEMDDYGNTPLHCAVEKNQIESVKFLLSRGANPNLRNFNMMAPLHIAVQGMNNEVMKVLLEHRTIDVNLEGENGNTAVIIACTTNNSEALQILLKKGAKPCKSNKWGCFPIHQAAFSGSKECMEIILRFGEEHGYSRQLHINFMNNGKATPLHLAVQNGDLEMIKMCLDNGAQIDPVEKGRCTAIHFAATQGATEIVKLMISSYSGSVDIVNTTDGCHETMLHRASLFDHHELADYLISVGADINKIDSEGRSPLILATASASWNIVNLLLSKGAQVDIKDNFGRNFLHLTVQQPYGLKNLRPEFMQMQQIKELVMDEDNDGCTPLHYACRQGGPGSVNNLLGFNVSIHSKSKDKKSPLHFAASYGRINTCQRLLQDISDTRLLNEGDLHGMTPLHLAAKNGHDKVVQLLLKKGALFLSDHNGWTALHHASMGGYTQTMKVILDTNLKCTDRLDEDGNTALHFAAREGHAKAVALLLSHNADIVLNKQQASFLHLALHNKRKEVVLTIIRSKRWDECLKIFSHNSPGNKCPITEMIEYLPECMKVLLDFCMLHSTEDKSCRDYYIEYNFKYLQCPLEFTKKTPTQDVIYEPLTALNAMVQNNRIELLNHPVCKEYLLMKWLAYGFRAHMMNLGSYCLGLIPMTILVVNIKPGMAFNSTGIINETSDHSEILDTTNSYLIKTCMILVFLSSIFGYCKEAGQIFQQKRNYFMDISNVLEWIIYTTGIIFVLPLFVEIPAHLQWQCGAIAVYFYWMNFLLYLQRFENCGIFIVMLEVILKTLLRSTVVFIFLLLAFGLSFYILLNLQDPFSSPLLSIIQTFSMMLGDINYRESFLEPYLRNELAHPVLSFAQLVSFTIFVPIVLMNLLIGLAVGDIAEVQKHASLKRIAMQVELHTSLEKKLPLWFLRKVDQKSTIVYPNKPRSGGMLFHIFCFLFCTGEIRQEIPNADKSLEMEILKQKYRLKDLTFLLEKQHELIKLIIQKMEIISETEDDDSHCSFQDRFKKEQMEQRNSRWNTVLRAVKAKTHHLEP"}, "[2]": {"molecular_target": "Transient receptor potential channel ankyrin 1 (TRPA1) (human (endogenous in MDA-MB-231)) (UniProt O75762)", "remark": "listed apart in the source"}}, "data": [{"substance": "Recombinant rat NCS-1 (Ca2+-free) (from UniProt P62168 1-190) (natural protein)", "values": [{"measurement": "inward conductance (IG TRPA1) in inside-out patches of MDA-MB-231 CTR cells, without vs with NCS-1", "setting": "[1]", "value": 104, "unit": "pS"}, {"measurement": "inward conductance (IG TRPA1) in inside-out patches of SH-SY5Y cells, without vs with NCS-1", "setting": "[1]", "value": 110, "unit": "pS"}, {"measurement": "outward conductance (OG TRPA1) in inside-out patches of MDA-MB-231 CTR cells, without vs with NCS-1", "setting": "[1]", "value": 155, "unit": "pS"}, {"measurement": "outward conductance (OG TRPA1) in inside-out patches of SH-SY5Y cells, without vs with NCS-1", "setting": "[1]", "value": 169, "unit": "pS"}, {"measurement": "open probability (Po) of AITC-activated TRPA1 single channels in inside-out patches of MDA-MB-231 CTR cells, with NCS-1 (10 μM) vs without", "setting": "[2]", "value": 0.883}]}]}
